Earlier results, collected in publication PMC2945288.

Target: coat protein (procapsid) (Salmonella phage P22) (UniProt P26747)
Sequence of UniProt P26747 (P26747 2-430): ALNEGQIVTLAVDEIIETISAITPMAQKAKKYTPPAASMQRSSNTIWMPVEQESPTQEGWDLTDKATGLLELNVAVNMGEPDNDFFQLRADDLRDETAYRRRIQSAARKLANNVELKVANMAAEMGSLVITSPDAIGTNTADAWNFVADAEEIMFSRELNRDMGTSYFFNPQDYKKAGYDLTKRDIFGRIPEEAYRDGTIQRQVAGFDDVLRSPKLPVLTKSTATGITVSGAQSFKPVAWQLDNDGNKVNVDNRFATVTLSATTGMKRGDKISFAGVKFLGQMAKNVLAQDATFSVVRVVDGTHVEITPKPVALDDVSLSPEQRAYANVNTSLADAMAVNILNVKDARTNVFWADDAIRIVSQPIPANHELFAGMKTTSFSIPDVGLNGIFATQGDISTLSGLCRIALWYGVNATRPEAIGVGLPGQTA

For “scaffolding protein (loosely bound) (from UniProt P26748)”, the Kd is listed as 28 µM.
